In paper PMC10212922, “A blocking monoclonal antibody reveals dimerization of intracellular domains of ALK2 associated with genetic disorders” (Nature Communications, 2023):
Numbering of substitutions follows the chain as printed.

Experiments:
[1] = target: T1, His-tagged and Fc-tagged mouse ALK2 protein (Sino Biological) (Mus musculus, UniProt P37172); experiment: SPR; BIAcore T200; anti-histidine antibody immobilised on a CM5 chip, His- and Fc-tagged ALK2 (10 μg/ml) captured; antibody 0.195-50 nM injected, single-cycle kinetics, 300 s association, 1800 s dissociation, 30 μl/min; bivalent analyte model; the methods speak of avidity; details: both partners purified
T1 construct: activin receptor-like kinase 2 (ALK2), mouse, extracellular domain; also called 6x His-tagged mouse ALK2 ECD fused to human IgG Fc; source: bought: Sino Biological Inc

[2] = target: T2, His-tagged and Fc-tagged human ALK2 protein (Sino Biological) (Homo sapiens, UniProt Q04771); experiment: as above; details: both partners purified
T2 construct: activin receptor-like kinase 2 (ALK2), human; source: bought: Sino Biological Inc

[3] = target: T3, His-tagged and Fc-tagged human ALK2 protein (Sino Biological) (human, UniProt Q04771 21-123); experiment: SPR
T3 chain: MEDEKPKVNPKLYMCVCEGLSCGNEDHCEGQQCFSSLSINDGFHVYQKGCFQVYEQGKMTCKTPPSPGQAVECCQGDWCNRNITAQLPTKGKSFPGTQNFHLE

[4] = target: T4, His-tagged and Fc-tagged mouse ALK2 protein (Sino Biological) (mouse, UniProt P37172 21-123); experiment: SPR
T4 chain: T3 chain with M1V, P10Q

V5-tagged mouse ALK2 = V5-tagged mouse ALK2 (mouse, UniProt P37172); experiment: cell-based or functional assay
Chain of V5-tagged mouse ALK2 (P37172 21-509): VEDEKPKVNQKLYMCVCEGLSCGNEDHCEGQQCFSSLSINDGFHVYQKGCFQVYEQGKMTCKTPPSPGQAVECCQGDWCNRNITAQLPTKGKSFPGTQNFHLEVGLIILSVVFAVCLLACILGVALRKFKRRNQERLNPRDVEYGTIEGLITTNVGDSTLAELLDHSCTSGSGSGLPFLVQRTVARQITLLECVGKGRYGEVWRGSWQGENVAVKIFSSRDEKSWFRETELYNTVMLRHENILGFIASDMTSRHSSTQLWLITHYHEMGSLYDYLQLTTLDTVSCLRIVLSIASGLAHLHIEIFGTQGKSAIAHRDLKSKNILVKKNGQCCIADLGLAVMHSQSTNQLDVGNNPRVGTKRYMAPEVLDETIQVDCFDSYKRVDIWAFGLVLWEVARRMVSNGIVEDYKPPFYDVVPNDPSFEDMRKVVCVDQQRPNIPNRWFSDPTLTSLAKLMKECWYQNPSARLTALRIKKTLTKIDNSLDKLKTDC

- Kd [1]: 5.1 nM
- Kd [2]: 5.6 nM
- koff [3]: 0.00576 s⁻¹
- koff [4]: 0.00563 s⁻¹
- IC50 of Rm0443 against ALP activity induced by 300 ng/ml BMP7 in C2C12 cells (endogenous ALK2), day 3 (V5-tagged mouse ALK2): 0.017 µg/mL
- IC50 of Rm0443 against BMP-specific luciferase reporter activity induced by 300 ng/ml BMP7 in C2C12 cells (endogenous ALK2), overnight (V5-tagged mouse ALK2): 0.216 µg/mL
B1: Rm0443, rat anti-ALK2 monoclonal antibody clone #0443 (antibody, V domains shown)
VH: EVQLVESGGGLVQPGRSLKLSCLASGSTFSNYGMKWIRQAPGKGLEWVASISRSSTYIYYADTVKGRFTISRDNARNTLYLQMTSLRSEDTALYYCAAAISTPFYWYFDFWGPGTVVTVSS
VL: EIVLTQSPTTMAASPGEKVTLNCLASSSVSYMTWYQQKSGASPKLWIYGTSNLASGVPNRFSGSGSGTSYSLAISSMEAEDVATYYCLHLTSYPPYTFGAGTKLELK
notes: variable region as in the heavy chain of the chimeric Fab m2 (PDB 7YRU); variable region as in the light chain of the chimeric Fab m2 (PDB 7YRU); Whole rat IgG from the hybridoma; PDB 7YRU holds the rat variable regions on human IgG1 kappa constant regions; source: rat hybridoma, purified from serum-free conditioned medium (protein G column)
